Here are results for one molecule from US20210085800A1.

This assay has as its target CD123 on the surface of EOL-1, KOPN-8 and MOLM-1 cells (UniProt P26951). In words: cell-based or functional assay.

Chain of CD123 on the surface of EOL-1, KOPN-8 and MOLM-1 cells (P26951 19-378 limits assumed): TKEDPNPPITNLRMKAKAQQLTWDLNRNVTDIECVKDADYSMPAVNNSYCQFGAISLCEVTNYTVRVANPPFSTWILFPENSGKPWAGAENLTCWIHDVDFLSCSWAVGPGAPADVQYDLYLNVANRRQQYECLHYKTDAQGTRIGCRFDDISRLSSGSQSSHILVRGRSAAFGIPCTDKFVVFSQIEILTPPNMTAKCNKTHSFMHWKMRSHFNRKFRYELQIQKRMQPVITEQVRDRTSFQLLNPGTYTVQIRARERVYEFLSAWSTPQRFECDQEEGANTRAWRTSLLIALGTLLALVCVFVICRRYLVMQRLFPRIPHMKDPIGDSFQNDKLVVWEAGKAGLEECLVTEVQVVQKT

B1: huCD123-6Rv1.1-D2 (antibody, from a related filing, V domains shown)
VH: QFQLVQSGAEVVKPGASVKMSCKASGYTFTSSIMHWMKQKPGQGLEWIGYIKPYNDGTKYNQKFQGKATLTSDKSSSTANMELNSLTSEDSAVYYCAREGGNDYYDTMDYWGQGTSVTVSS
VL: DIQMTQSPSSMSASVGERVTITCRASQDINSYLSWFQQKPGKSPKTLIYRVNRLVDGVPSRFSGSGSGQDYSLTISSLEPEDMGIYYCLQYDAFPYTFGQGTKLEIKR
In turn, B1 had an IC50, in vitro cytotoxicity assay (WST-8), EOL-1 cells of 2 pM; an IC50, in vitro cytotoxicity assay (WST-8), KOPN-8 cells of 5 pM; an IC50, in vitro cytotoxicity assay (WST-8), MOLM-1 cells of 20 pM; a fold loss of cytotoxicity when CD123 is blocked by chCD123-6 of 100 fold.
